The target of assay [1] is T1, mouse βNGF (R&D Systems, Inc.) (mouse, UniProt P01139 122-241). Briefly: cell-based or functional assay.
Assay [2] has as its target T2, human βNGF (R&D Systems, Inc.) (human, UniProt P01138 122-241).
T2 construct: The background says that NGF forms a dimer; also called human NGF; rhNGF
Briefly: Fab fragments evaluated by the tests of Examples 3, 6 and 7. Here is the method: (§1) Inhibitory activity was measured by the following method. The human trkA (R&D Systems, Inc.) was added to a white Maxisorp 384 plate (Nunc) at 60 ng/well and immobilized by being incubated overnight at 4° C. The next day, the plate was washed once with the TBST wash solution, a blocking agent (TBST containing 20% Blocking One (Nacalai Tesque, Inc.)) was then added thereto, and the plate was left to stand at room temperature for an hour. Subsequently, a mixture obtained by mixing the biotin-labeled human βNGF (0.2 μg/ml) prepared as above with the antibody prepared in Example 2 was added to the trkA-immobilized plate having undergone blocking. […] After an hour of incubation at room temperature, the plate was washed three times with the TBST wash solution and then supplemented with APU4 (BioFx) which is a reagent detecting chemiluminescence, and the amount of chemiluminescence was measured by an EnVision counter (PerkinElmer Co., Ltd.).
(§2) The inhibitory activity was measured by the following method. […] By operating the FLIPR, a mixed solution of the antibody obtained in Example 2 and βNGF was added to the plate at 50 μl/well (final NGF concentration of 100 ng/ml), and the change in intracellular Ca²⁺ concentration was measured.

Assay [3] deals with T2, human βNGF (R&D Systems, Inc.). Briefly: cell-based or functional assay.
Assay [4] has the same target. Briefly: NGF-trkA binding inhibition ELISA and cell assays (Examples 3, 6, 7). Here is the method: as §1, §2
Background: ELISA stands for enzyme-linked immunosorbent assay.

For assay [5], the target named is T1, mouse βNGF (R&D Systems, Inc.). Briefly: method of Example 3 with biotin-labeled mouse βNGF (Example 4).
Assay [6] has as its target T2, human βNGF (R&D Systems, Inc.). Briefly: isothermal titration calorimetry, human βNGF titrated into antibody in PBS, single site binding model.
Assay [7] has the same target. Briefly: competition ELISA: inhibition of biotin-labeled human βNGF binding to immobilized human trkA (Example 3).

This is an account of results in patent US20140227287A1 (Astellas, published 2014).

Where a chain is given by its changes, count along the chain named. In names and notes the source's numbering stands.

B1: PEGylated 1-15(N52D)-Fab′ (Fab, V domains shown)
VH: QVQLQQWGAGLLKPSETLSLTCAVYGGSFSGYYWSWVRQPPGKGLEWIGEIDHSGSTNNNPSLKSRVTISVGTSKNQFSLKLSSVTAADTAVYYCSRDGGPESGMGAFDIWGQGTMVTVSS
VL: not shown
modifications: 40 kDa PEG (maleimide, SUNBRIGHT GL2-400MA) on Cys of the carboxyl terminal (C226 based on EU index; Cys at position 230 of SEQ ID NO:10)
Consider B1, for which, in assay [1], the “IC50, inhibition of NGF-induced intracellular Ca2+ increase (method of Example 6)” value was 0.069 µg/mL and the “neutralizing activity relative to tanezumab (method of Example 6)” value was approximately 3.3 times.

B2: Fab fragment of antibody 1-15 (papain digest) (Fab, V domains shown)
VH: B1 VH with D52N
VL: not shown
notes: also called monovalent antibody fragment of 1-15
In the case of B2, in assay [2], the binding result is given as “binds”.

B3: 1-15(N52D-A)-Fab′-10kPEG (Fab, V domains shown)
VH: B1 VH
VL: not shown
modifications: 10 kDa PEG conjugated by a procedure similar to Example 13 (hinge Cys)
As for B3, the “IC50, inhibition of NGF-induced intracellular Ca2+ increase (method of Example 6, final NGF concentration 50 ng/ml)” value in assay [3] worked out at 0.028 µg/mL.

B4: antibody 1-15 (chimeric antibody) (antibody, V domains shown)
VH: B1 VH with D52N
VL: not shown
notes: Heavy chain variable region has an N-glycosylation motif at N52 (Kabat)
As for B4, the binding result in assay [4] and in assay [5] was “binds” throughout.

B5: 1-15(N52D-A)-Fab′-5kPEG (Fab, V domains shown)
VH: B1 VH
VL: not shown
modifications: 5 kDa PEG conjugated by a procedure similar to Example 13 (hinge Cys)
For the molecule B5, the “IC50, inhibition of NGF-induced intracellular Ca2+ increase (method of Example 6, final NGF concentration 50 ng/ml)” value in assay [3] was 0.03 µg/mL.

B6: tanezumab (antibody, V domains shown)
VH: QVQLQESGPGLVKPSETLSLTCTVSGFSLIGYDLNWIRQPPGKGLEWIGIIWGDGTTDYNSAVKSRVTISKDTSKNQFSLKLSSVTAADTAVYYCARGGYWYATSYYFDYWGQGTLVTVSS
VL: DIQMTQSPSSLSASVGDRVTITCRASQSISNNLNWYQQKPGKAPKLLIYYTSRFHSGVPSRFSGSGSGTDFTFTISSLQPEDIATYYCQQEHTLPYTFGQGTKLEIKR
As usually defined, the Kd is the constant that tells how readily two partners part at equilibrium. Read a low Kd as tighter binding. The term IC50 denotes the concentration at which inhibition is half-maximal. A higher IC50 goes with lower potency. For B6, in assay [6], the “-TΔS” value is -5.73 kcal/mol, the Kd worked out at 20.4 nM, the “ΔG” value is -10.5 kcal/mol and the “ΔH” value was -4.76 kcal/mol. For the same molecule, the “IC50, inhibition of NGF-induced intracellular Ca2+ increase (method of Example 6)” value in assay [3] is 0.17 µg/mL. The “IC50, inhibition of NGF-induced intracellular Ca2+ increase (method of Example 6)” value in assay [1] is 0.23 µg/mL. In assay [7], this molecule yielded an IC50 of 0.41 µg/mL.
